{"source": "paper PMC9482650", "about": "“Quantitative fragmentomics allow affinity mapping of interactomes” (Nature Communications, 2022)", "test_in_all_cases": "holdup assay", "set-up_in_all_cases": "key: below the threshold = too weak to quantify, mostly under pKd 3.1 to 4", "key": {"[1]": {"target": "GRIP2_7, Q9C0E4", "sequence (Q9C0E4 934-1023)": "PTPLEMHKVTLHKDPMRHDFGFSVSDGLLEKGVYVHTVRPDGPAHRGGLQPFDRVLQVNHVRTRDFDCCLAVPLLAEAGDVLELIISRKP"}, "[2]": {"target": "MAGI2_2, Q86UL8", "sequence (Q86UL8 410-522)": "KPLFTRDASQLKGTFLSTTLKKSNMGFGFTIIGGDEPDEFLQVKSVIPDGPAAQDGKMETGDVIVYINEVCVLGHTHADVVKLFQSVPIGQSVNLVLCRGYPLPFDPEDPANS"}, "[3]": {"target": "FRMPD2_3, Q68DX3", "sequence (Q68DX3 1073-1166)": "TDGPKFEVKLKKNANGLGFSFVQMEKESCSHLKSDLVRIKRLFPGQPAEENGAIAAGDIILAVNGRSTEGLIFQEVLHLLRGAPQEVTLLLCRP"}, "[4]": {"target": "MAGI2_6, Q86UL8", "sequence (Q86UL8 1141-1229)": "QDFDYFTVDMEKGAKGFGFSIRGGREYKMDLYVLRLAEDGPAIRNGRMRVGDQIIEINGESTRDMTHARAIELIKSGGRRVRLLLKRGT"}, "[5]": {"target": "T1, PARD3B_1, Q8TEW8", "T1 sequence (Q8TEW8 196-299, limits assumed, looked up)": "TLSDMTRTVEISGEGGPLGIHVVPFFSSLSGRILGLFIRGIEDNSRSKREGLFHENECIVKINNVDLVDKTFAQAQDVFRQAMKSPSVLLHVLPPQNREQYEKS"}, "[6]": {"target": "T2, GRIP1_2, Q9Y3R0", "T2 sequence (Q9Y3R0 145-248, limits assumed, looked up)": "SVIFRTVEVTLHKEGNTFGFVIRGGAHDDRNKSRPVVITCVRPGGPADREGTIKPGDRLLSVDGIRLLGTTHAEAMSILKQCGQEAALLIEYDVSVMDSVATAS"}, "[7]": {"target": "T3, MPDZ_5, O75970", "T3 sequence (O75970 695-796, limits assumed, looked up)": "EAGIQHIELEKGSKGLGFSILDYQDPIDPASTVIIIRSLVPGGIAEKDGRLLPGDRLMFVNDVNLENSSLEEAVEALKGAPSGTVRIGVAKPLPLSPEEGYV"}, "[8]": {"target": "DLG2_2, Q15700", "sequence (Q15700 189-283)": "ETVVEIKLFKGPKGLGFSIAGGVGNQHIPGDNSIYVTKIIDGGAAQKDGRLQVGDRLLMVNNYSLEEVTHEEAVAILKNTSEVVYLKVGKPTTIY"}, "[9]": {"target": "GIPC2, Q8TF65", "sequence (Q8TF65 112-203)": "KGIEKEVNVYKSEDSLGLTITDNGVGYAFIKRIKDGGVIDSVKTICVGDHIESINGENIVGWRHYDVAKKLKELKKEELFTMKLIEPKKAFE"}, "[10]": {"target": "Inadl_6, Q8NI35", "sequence (Q8NI35 1058-1167)": "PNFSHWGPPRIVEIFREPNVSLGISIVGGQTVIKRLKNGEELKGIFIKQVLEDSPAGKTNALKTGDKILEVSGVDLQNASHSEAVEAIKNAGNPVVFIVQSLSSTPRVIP"}, "[11]": {"target": "Inadl_8, Q8NI35", "sequence (Q8NI35 1425-1530)": "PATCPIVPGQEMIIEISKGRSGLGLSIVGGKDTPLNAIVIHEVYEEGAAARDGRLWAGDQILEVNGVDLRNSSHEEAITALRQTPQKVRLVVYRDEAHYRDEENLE"}, "[12]": {"target": "T4, CARD11, Q9BXL7", "T4 sequence (Q9BXL7 662-765, limits assumed, looked up)": "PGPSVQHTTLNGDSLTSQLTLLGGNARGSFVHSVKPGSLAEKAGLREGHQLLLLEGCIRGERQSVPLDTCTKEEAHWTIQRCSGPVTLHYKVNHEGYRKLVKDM"}, "[13]": {"target": "DLG1_2, Q12959", "sequence (Q12959 314-412)": "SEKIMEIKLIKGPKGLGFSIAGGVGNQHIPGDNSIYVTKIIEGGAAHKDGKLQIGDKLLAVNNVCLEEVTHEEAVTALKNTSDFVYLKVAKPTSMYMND"}, "[14]": {"target": "T5, GRIP1_5, Q9Y3R0", "T5 sequence (Q9Y3R0 568-668, limits assumed, looked up)": "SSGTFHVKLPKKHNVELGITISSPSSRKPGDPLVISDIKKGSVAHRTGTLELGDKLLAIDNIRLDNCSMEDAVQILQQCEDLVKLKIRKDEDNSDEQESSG"}, "[15]": {"target": "T6, LIN7B, Q9HAP6", "T6 sequence (Q9HAP6 88-185, limits assumed, looked up)": "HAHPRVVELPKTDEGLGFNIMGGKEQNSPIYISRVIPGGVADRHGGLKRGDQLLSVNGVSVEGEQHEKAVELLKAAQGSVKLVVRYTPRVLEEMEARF"}, "[16]": {"target": "NHERF4_2, Q86UT5", "sequence (Q86UT5 220-308)": "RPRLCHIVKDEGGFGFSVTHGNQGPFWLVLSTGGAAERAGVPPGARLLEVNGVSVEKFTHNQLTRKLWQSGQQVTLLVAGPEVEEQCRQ"}, "[17]": {"target": "T7, MPDZ_10, O75970", "T7 sequence (O75970 1624-1722, limits assumed, looked up)": "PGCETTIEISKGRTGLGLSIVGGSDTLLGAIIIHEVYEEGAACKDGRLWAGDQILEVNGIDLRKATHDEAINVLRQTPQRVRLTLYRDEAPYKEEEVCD"}, "[18]": {"target": "T8, MPP7, Q5T2T1", "T8 sequence (Q5T2T1 134-230, limits assumed, looked up)": "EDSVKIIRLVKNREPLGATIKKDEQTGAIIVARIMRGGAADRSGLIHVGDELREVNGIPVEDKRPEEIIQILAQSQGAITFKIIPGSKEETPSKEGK"}, "[19]": {"target": "TJP2_1, Q9UDY2", "sequence (Q9UDY2 24-128)": "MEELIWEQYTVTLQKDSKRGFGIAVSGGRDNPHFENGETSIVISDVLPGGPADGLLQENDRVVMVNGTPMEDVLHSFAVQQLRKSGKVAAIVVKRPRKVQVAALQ"}, "[20]": {"target": "GRIP2_6, Q9C0E4", "sequence (Q9C0E4 648-740)": "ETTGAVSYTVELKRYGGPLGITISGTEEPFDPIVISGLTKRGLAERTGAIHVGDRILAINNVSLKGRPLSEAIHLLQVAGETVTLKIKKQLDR"}, "[21]": {"target": "T9, APBA3_1, O96018", "T9 sequence (O96018 389-490, limits assumed, looked up)": "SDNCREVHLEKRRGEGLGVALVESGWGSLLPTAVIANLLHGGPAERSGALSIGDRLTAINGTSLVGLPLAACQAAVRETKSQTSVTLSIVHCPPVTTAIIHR"}, "[22]": {"target": "T10, GRIP1_4, Q9Y3R0", "T10 sequence (Q9Y3R0 467-571, limits assumed, looked up)": "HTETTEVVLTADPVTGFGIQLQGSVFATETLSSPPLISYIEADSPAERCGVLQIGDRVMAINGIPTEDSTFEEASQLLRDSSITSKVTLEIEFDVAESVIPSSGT"}, "[23]": {"target": "LNX1_2, Q8TBB1", "sequence (Q8TBB1 371-470)": "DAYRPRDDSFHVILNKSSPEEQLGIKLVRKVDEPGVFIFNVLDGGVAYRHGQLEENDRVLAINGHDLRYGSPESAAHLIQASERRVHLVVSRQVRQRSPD"}, "[24]": {"target": "MAGI1_1, Q96QZ7", "sequence (Q96QZ7 1-106)": "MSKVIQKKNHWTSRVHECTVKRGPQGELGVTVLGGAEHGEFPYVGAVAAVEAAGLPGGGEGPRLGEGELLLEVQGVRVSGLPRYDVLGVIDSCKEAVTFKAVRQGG"}, "[25]": {"target": "T11, LIN7A, O14910", "T11 sequence (O14910 103-200, limits assumed, looked up)": "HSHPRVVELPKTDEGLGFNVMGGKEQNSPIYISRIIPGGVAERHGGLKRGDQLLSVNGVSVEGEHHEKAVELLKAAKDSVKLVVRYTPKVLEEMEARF"}, "[26]": {"details": "plain residues with an end cap or a label only (N-terminal biotin on a linker: ahx)"}, "[27]": {"details": "plain residues with an end cap or a label only (N-terminal biotin on a linker: ttds)"}, "[28]": {"details": "plain residues with an end cap or a label only (N-terminal biotin on a linker: ado-ado)"}}}
{"binder": "AKPQPVDSWV", "note": "[ARVCF, O00192]", "values": [{"measurement": "pKd", "setting": "[1]; [26]", "value": 4.13}, {"measurement": "pKd", "setting": "[2]; [26]", "value": "below the threshold"}, {"measurement": "pKd", "setting": "[3]; [26]", "value": "below the threshold"}, {"measurement": "pKd", "setting": "[4]; [26]", "value": 5.48}, {"measurement": "pKd", "setting": "[5]; [26]", "value": "below the threshold"}, {"measurement": "pKd", "setting": "[6]; [26]", "value": "below the threshold"}, {"measurement": "pKd", "setting": "[7]; [26]", "value": "below the threshold"}, {"measurement": "pKd", "setting": "[8]; [26]", "value": "below the threshold"}, {"measurement": "pKd", "setting": "[9]; [26]", "value": "below the threshold"}, {"measurement": "pKd", "setting": "[10]; [26]", "value": 4.33}, {"measurement": "pKd", "setting": "[11]; [26]", "value": 3.87}, {"measurement": "pKd", "setting": "[12]; [26]", "value": "below the threshold"}, {"measurement": "pKd", "setting": "[13]; [26]", "value": 4.75}, {"measurement": "pKd", "setting": "[14]; [26]", "value": "below the threshold"}, {"measurement": "pKd", "setting": "[15]; [26]", "value": "below the threshold"}, {"measurement": "pKd", "setting": "[16]; [26]", "value": "below the threshold"}, {"measurement": "pKd", "setting": "[17]; [26]", "value": "below the threshold"}, {"measurement": "pKd", "setting": "[18]; [26]", "value": "below the threshold"}, {"measurement": "pKd", "setting": "[19]; [26]", "value": 4.77}, {"measurement": "pKd", "setting": "[20]; [26]", "value": "below the threshold"}, {"measurement": "pKd", "setting": "[21]; [26]", "value": "below the threshold"}, {"measurement": "pKd", "setting": "[22]; [26]", "value": "below the threshold"}, {"measurement": "pKd", "setting": "[23]; [26]", "value": "below the threshold"}, {"measurement": "pKd", "setting": "[24]; [26]", "value": "below the threshold"}, {"measurement": "pKd", "setting": "[25]; [26]", "value": "below the threshold"}]}
{"binder": "KQVVPFSSSV", "note": "[GDA, Q9Y2T3]", "values": [{"measurement": "pKd", "setting": "[1]; [27]", "value": "below the threshold"}, {"measurement": "pKd", "setting": "[2]; [27]", "value": "below the threshold"}, {"measurement": "pKd", "setting": "[3]; [27]", "value": "below the threshold"}, {"measurement": "pKd", "setting": "[4]; [27]", "value": 4.02}, {"measurement": "pKd", "setting": "[5]; [27]", "value": "below the threshold"}, {"measurement": "pKd", "setting": "[6]; [27]", "value": "below the threshold"}, {"measurement": "pKd", "setting": "[7]; [27]", "value": 3.52}, {"measurement": "pKd", "setting": "[8]; [27]", "value": 3.89}, {"measurement": "pKd", "setting": "[9]; [27]", "value": "below the threshold"}, {"measurement": "pKd", "setting": "[10]; [27]", "value": "below the threshold"}, {"measurement": "pKd", "setting": "[11]; [27]", "value": 4.89}, {"measurement": "pKd", "setting": "[12]; [27]", "value": "below the threshold"}, {"measurement": "pKd", "setting": "[13]; [27]", "value": 4.38}, {"measurement": "pKd", "setting": "[14]; [27]", "value": "below the threshold"}, {"measurement": "pKd", "setting": "[15]; [27]", "value": "below the threshold"}, {"measurement": "pKd", "setting": "[16]; [27]", "value": "below the threshold"}, {"measurement": "pKd", "setting": "[17]; [27]", "value": 3.93}, {"measurement": "pKd", "setting": "[18]; [27]", "value": "below the threshold"}, {"measurement": "pKd", "setting": "[19]; [27]", "value": "below the threshold"}, {"measurement": "pKd", "setting": "[20]; [27]", "value": "below the threshold"}, {"measurement": "pKd", "setting": "[21]; [27]", "value": "below the threshold"}, {"measurement": "pKd", "setting": "[22]; [27]", "value": "below the threshold"}, {"measurement": "pKd", "setting": "[23]; [27]", "value": "below the threshold"}, {"measurement": "pKd", "setting": "[24]; [27]", "value": "below the threshold"}, {"measurement": "pKd", "setting": "[25]; [27]", "value": "below the threshold"}]}
{"binder": "PDSYHRRDFW", "note": "[U2AF2, P26368]", "values": [{"measurement": "pKd", "setting": "[1]; [28]", "value": "below the threshold"}, {"measurement": "pKd", "setting": "[2]; [28]", "value": "below the threshold"}, {"measurement": "pKd", "setting": "[3]; [28]", "value": "below the threshold"}, {"measurement": "pKd", "setting": "[4]; [28]", "value": "below the threshold"}, {"measurement": "pKd", "setting": "[5]; [28]", "value": 4.1}, {"measurement": "pKd", "setting": "[6]; [28]", "value": "below the threshold"}, {"measurement": "pKd", "setting": "[7]; [28]", "value": "below the threshold"}, {"measurement": "pKd", "setting": "[8]; [28]", "value": "below the threshold"}, {"measurement": "pKd", "setting": "[9]; [28]", "value": "below the threshold"}, {"measurement": "pKd", "setting": "[10]; [28]", "value": "below the threshold"}, {"measurement": "pKd", "setting": "[11]; [28]", "value": 3.48}, {"measurement": "pKd", "setting": "[12]; [28]", "value": "below the threshold"}, {"measurement": "pKd", "setting": "[13]; [28]", "value": "below the threshold"}, {"measurement": "pKd", "setting": "[14]; [28]", "value": "below the threshold"}, {"measurement": "pKd", "setting": "[15]; [28]", "value": "below the threshold"}, {"measurement": "pKd", "setting": "[16]; [28]", "value": 3.64}, {"measurement": "pKd", "setting": "[17]; [28]", "value": "below the threshold"}, {"measurement": "pKd", "setting": "[18]; [28]", "value": "below the threshold"}, {"measurement": "pKd", "setting": "[19]; [28]", "value": 3.56}, {"measurement": "pKd", "setting": "[20]; [28]", "value": "below the threshold"}, {"measurement": "pKd", "setting": "[21]; [28]", "value": "below the threshold"}, {"measurement": "pKd", "setting": "[22]; [28]", "value": "below the threshold"}, {"measurement": "pKd", "setting": "[23]; [28]", "value": "below the threshold"}, {"measurement": "pKd", "setting": "[24]; [28]", "value": "below the threshold"}, {"measurement": "pKd", "setting": "[25]; [28]", "value": "below the threshold"}]}
